The text below walks through data of the DeepSol protein solubility set.

The data set in a line: soluble on expression in E. coli; label from the status in PepcDB or PDB records.
Turning to “NTLTSQIEQLQSLAHELLYLGVDGAPIYTDHFRQLNKEVLEQSDALYPQRGATPEEEANICLALLMGYNATIYNQGDKEEKKQVVLNRCWDVLDQLPATLLKCQLLTYCYGEVFE”, the “soluble on expression in E. coli” value is “not soluble”.

Turning to “PAAGPSRVRQNFHPDSEAAINRQINLELYASYVYLSMAYYFSRDDVALNNFSRYFLHQSREETEHAEKLMRLQNQRGGRIRLQDIKKPEQDDWESGLHAMECALLLEKNVNQSLLELHALASDKGDPHLCDFLETYYLNEQVKSIKELGDHVHNLVKMGAPDAGLAEYLFDTHTLGNENKQN”, the “soluble on expression in E. coli” value was “soluble”.

With “PDLSTWNLTIPQGRPAITISTSQLQRDYRSDYFQRTADGIRFWVPVNGSHTRNSEFPRSELRETLSSGRPYNWRYARADNWLEATLRIEAVPSTRRMIIGQIHSDGSNSGQAAPLVKLLYQLRLDQGRVQALVRERPDDGGTRAYTLMDGIPLGQPFSYRIGVSRSGLLSVSVNGSALEQQLDPQWAYQGLYFKAGLYLQDNRGPSSEGGRATFSELRVSHQ”, the “soluble on expression in E. coli” value is reported as “soluble”. Turning to “PESPGGRGIKPDTCPAPGPRSPLQLPLAPDAESGSSGRRPGEPRDPLKLQQLQNQIRLEQEAGARQPPPAPRSAPPSPPFPPPPAFPELAACTPPASPEPMSALASRSAPAMQSSGSFNYARPKQFIAAQNLGPASGHGTPASSPSSSSLPSPMSPTPRQFGRAPVPPFAQPFGAEPEAPWGSSSPSPPPPPPPVFSPTAAFPVPDVFPLPPPPPPLPSPGQASHCSSPATRFGHGQTPAAFLSALLPSQPPPAAVNALGLPKGVTPAGFPKKASRTARIASDEEIQGTKDAVIQDLERKLRFKEDLLNNGQPRLTYEERMARRLLGADSATVFNIQEPEEETANQEYKVSSCEQRLISEIEYRLERSPVDESGDEVQYGDVPVENGMAPFFEMKLKHYKIFEGMPVTFTCRVAGNPKPKIYWFKDGKQISPKSDHYTIQRDLDGTCSLHTTASTLDDDGNYTIMAANPQGRISCTGRLMVQAVNQRGRSPRSPSGHPHVRRPRSRSRDSGDENEPIQERFFRPHFLQAPGDLTVQEGKLCRMDCKVSGLPTPDLSWQLDGKPVRPDSAHKMLVRENGVHSLIIEPVTSRDAGIYTCIATNRAGQNSFSLELVVAAKEAHKPPVFIEKLQNTGVADGYPVRLECRVLGVPPPQIFWKKENESLTHSTDRVSMHQDNHGYICLLIQGATKEDAGWYTVSAKNEAGIVSCTARLDVYTQWHQQSQSTKPKKVRPSASRYAALSDQGLDIKAAFQPEANPSHLTLNTALVESEDL”, the “soluble on expression in E. coli” value is listed as “soluble”.

For “PEYSLFVGDLTPDVDDGMLYEFFVKVYPSCRGGKVVLDQTGVSKGYGFVKFTDELEQKRALTECQGAVGLGSKPVRLSVAIPKASRVKPVE”, the “soluble on expression in E. coli” value was “soluble”.

On to “PFINIKLVPENGGPTNEQKQQLIEGVSDLMVKVLNKNKASIVVIIDEVDSNNYGLGGESVHHLRQKN”, for which the “soluble on expression in E. coli” value is on record as “soluble”. Take “PFSWMRYIVISRKDLEEDGREILIHEMAHIQNRHSIDLLVADICIFFQWFNPGIWLLKQELQNIHEYEADETVINEGIDAKDYQLLLI”: the “soluble on expression in E. coli” value is listed as “not soluble”. Turning to “PHSPLAEGRREVAKVLTMASEALTQVSTAMRTGDVDGIREALRKARGSQAAINAMIAAAKSGQEEVAVSPFLWSSKARVRSFVRILHPVDNAMRNTRVLARRAQVLIEDGDEVSEAQIQLIDDLVSVTSAVAAIYDRRGAASEAAEIPELVRTLQTMAARAGLSVAEGKVLSAQVVLAQTRSIIVDLLQVCGMSRASAVASLALTSESPAYPSEIRDDPNH”, the “soluble on expression in E. coli” value is given as “soluble”. Turning to “PISSEQKQLISQLTDLGYSFDGLQTGYPGGEPDWHYVKELSGIEEKDLIKSFSKKGKPLVKKAKTFGIKLKKLKRDELSIFKEITSATSDRREYSDKSLDYYQDFYDAFGDNADFMVATLNFQDYFDHLESNQAKLRARIVKLQADLETNPTSEKKQNQLRELSSQLETFDVRKGEATAFIDKYGQEDIVLAGSLFVYTPQEAVYLFSGSYPEFNKFYAPALLQEYVMTQAIKRGIGFYNFLGIMGIFDGSDGVLRFKQNFNGYIVRKMGTFRYYPQPLKYKAIQGVKKLLGRN”, the “soluble on expression in E. coli” value was “not soluble”.

For “PIVLFPGQQATLSPQGISSPSPFDHTAITAWLRNQLVFYDTPLAEVVDTLNRHRHGRIFITNQKLKALKVSGVFSTDEPDTALDVMINTLPIHLLRLTDYLVLI”, the “soluble on expression in E. coli” value was “not soluble”.

With “PKEQSMKIVVIGGTGLIGSNVVNRLRRDGHETVAASPGTGVNTITGEGLAQALDGAQVVVDVANSPSFEDQAVMAFFETSGRTLLAAEAAAGVTHHLALSVVGTDRLADSGYFRAKVAQEALIKASKVPYTILRATQFFE”, the “soluble on expression in E. coli” value is listed as “not soluble”. In the case of “PKYTIVDKETCIACGACGAAAPDIYDYDEDGIAYVTLDDNQGIVEVPDILIDDMMDAFEGCPTDSIKVADEPFDGDPNKFE”, the “soluble on expression in E. coli” value is “soluble”. Then “PLSEAELALFDPYSKEESTGPSPTHTGELAAIEVESKRLDQEPWEPGGQEEEEAEDGEPAPAYLGQATELITQALRNEKAGAYAAALQGYQDGVHILLQGVSGDPSPARREGVKKKAAEYLKRAEMLHTHLP”, with “soluble”; and “PMFEAAYDFPGSGSPSELPLKKGDVIYITREEPSGWSLGKLLDGSKEGWVPTAYMKPH”, with “soluble”. To “PNAIVNRSIPEGVDVFEISGPLFFGAASKFKDAMHVVEKAPSIRILRMRKVMSIDATGLNMLKELFNDCRKSGTTLILSGVHTQPLFAMQQYGLADEIGEENIFGNIDDALDRARSLLGLPVQGRPAGF” belongs “not soluble”; to “PNEKFCFEGFLPQKKGRMTKLKSLVDEHRTMVFYESPHRLLKTLTQFAEYFGPERQVSVSREISKIHEETVRGTLSELIEHFTATDPRGEIVIVLAGIDD”, “not soluble”. Then “PNGDKVHAWYWQSPRRDAPTVLYLHGARWNLNGSAFRMEGWTRMGYSMLAIDYRGFGQSTPLLPSEQSASQDAAAALQELARRQPDPARRFIYGHSLGGAIAIDLAARPDLPPFAGLIVESSFTSIGAMLGTMKWGWVPGATLLVTQPFASVDKLAALTTPMLLLHGTADRVVPHTMSDELYRAAQQVPADLKRLVKIEGASHSGAIRSGRIYEDAVADFVRDAGRGYAGRQGAPTPLTASRPGT”, with “not soluble”; and “PNRSISPSALQDLLRTLKSPSSPQQQQQVLNILKSNPQLMAAFIKQRTAKYVANQPGMQ”, with “soluble”; and “PPIILQGPANQTLAVDGTALLKCKATGDPLPVISWLKEGFTFPGRDPRATIQEQGTLQIKNLRISDTGTYTCVATSSSGETSWSAVLDVTESG”, with “soluble”. In the case of “PQDAVIWLGAEKTGLKLTNSSNTFEGVIDGVDITVTKAQTSGETAIGLGIGADDEATKEQLNKFVDAYNTLISTIDEHTQIGSEDKKRGVLASDPTMRSIESQLSSLVRGEHGGMRLSEIGVTLDRHGKLKVDQEKFAEAQKNNSAGLEAMFNGDGALLDSMDAMAEPFLKFSSGAFKSRKEALQANLDRLSDKQTTLERKYDMSYKRYLKQFTQMNTLMTQMNQ”, the “soluble on expression in E. coli” value is listed as “not soluble”. As to “PREEVARIHASSGTTGKPTVVGYTKNDLKVFAEVVARSLAAAGARPGMMLHNAYGYGLFTGGLGLHGGAEALGMTVVPVSGGMTERQVMLIQDFRPEVISCTPSYAQTLAEEFRKRGVSPEELSLEYAVLGAEPWTEAIRKQVDEGLGVKSTNIYGLSEIIGPGVSNECVEERQGSHI”, the “soluble on expression in E. coli” value is given as “not soluble”. For “PREFVLRPAPQGRTVRCRLTRDKKGMDRGMYPSYFLHLDTEKKVFLLAGRKRKRSKTANYLISIDPTNLSRGGENFIGKLRSNLLGNRFTVFDNGQNPQRGYSTNVASLRQELAAVIYETNVLGFRGPRRMTVIIPGMSAENERVPIRPRNASDGLLVRWQNKTLESLIELHNKPPVWNDDSGSYTLNFQGRVTQASVKNFQIVHADDPDYIVLQFGRVAEDAFTLDYRYPLCALQAFAIALSSFD”, the “soluble on expression in E. coli” value is “soluble”. As to “PRLTRRLTGFLPQEIKSIDTMIPLLSRALWNKHQVKKFNKAEDFQDRFIDHVETTLARSLYNCDDMVAYEAASMSIRDNLVIDWNKTQQKFTTRDPKRVYYLSLEFLMGRALDNALINMKIEDPEDPAASKGKPREMIKGALDELGFKLEDVLDQEPDAGLGNGGLGRLAACFVDSMATEGIPAWGYGLRYEYGIFAQKIIDGYQVETPDYWLNSGNPWEIERNEVQIPVTFYGYVDRPEGGKTTLSASQWIGGERVLAVAYDFPVPGFKTSNVNNLRLWQARPTTEFDLNKFNNGDYKNSVAQQQRAESITAVLYPNDNFAQGKELRLKQQYFWCAASLHDILRRFKKSKRPWTEFPDQVAIQLNDTHPTLAIVELQRVLVDLEKLDWHEAWDIVTKTFAYTNHTVMQEALEKWPRRLFGHLLPRHLEIIYDINWFFLEDVAKKFPKDVDLLSRISIIEENSPERQIRMAFLAIVGSHKVNGVVELHSELIKTTIFKDFIKFYGPSKFVNVTNGITPRRWLKQANPSLAKLISETLNDPTEEYLLDMAKLTQLEKYVEDKEFLKKWNQVKLNNKIRLVDLIKKENDGVDIINREYLDDTLFDMQVKRIHEYKRQQLNVFGIIYRYLAMKNMLKNGASIEEVARKYPRKVSIFGGKSAPGYYMAKLIIKLINCVADIVNNDESIEHLLKVVFVADYNVSKAEIIIPASDLSEHISTAGTEASGTSNMKFVMNGGLIIGTVDGANVEITREIGEDNVFLFGNLSENVEELRYNHQYHPQDLPSSLDSVLSYIESGQFSPENPNEFKPLVDSIKYHGDYYLVSDDFESYLATHELVDQEFHNQRSEWLKKSVLSLANVGFFSSDRCIEEYSDTIWNVEPVT”, the “soluble on expression in E. coli” value is given as “soluble”. For the sequence “PRNQMPRIHASSGTTGKPTVVGYTKTDLDNWANLMARSMVGAGASPDDIVHNAYGYGLFTGGLGAHYGAERLGCTVVPASGGGTERQVQLIVDFGANVLCCTPSYALNIAEVAEQMGVSLKDAPLRVGLFGAEPWSDAMRRDLEARLGIKAVDVYGLSEIMGPGVACECH”, the “soluble on expression in E. coli” value is listed as “not soluble”.

For “PSRPVRPNNRCFSCNKKVGVMGFKCKCGSTFCGSHRYPEKHECSFDFKEVG”, the “soluble on expression in E. coli” value is on record as “soluble”. In the case of “PTNIHKIHEVQKKLQEEVSIVLIDIADIIVNPKKENGYSRDLYTLNSLIDSSISETYDNINNTLLSDTRFFLEHMDIIKSQRDILENLYSYVSQLNSTPPQAHILSAFIHKIGYTEFEAETGNLLLEELKRLMISMKNQPLPVDRTEFENRAILFLCLTELKQFLVNRKHAQML”, the “soluble on expression in E. coli” value is recorded as “soluble”. To “PTRQVLQGSRCRLEPLTLAHASDLFAAHQLAPDARSWTWLLREPESNLAEFSAWVEQVATLADPIHFAVVDQQRGKAVGSLALMRIDIAHGVVEVGHVHFSPLLSRTAMATEAHWLLMQYVFDTLGYRRYEWKCNSLNIPSARAARRLGFQYEGRFRQALVSKGHNRDTDWFSVIDGEWPELDNAMRQWLAADNFTA” belongs “not soluble”; to “QAGRFIGQEISGRLSSRSMLAVQIDDLLKLAARFVGEERARQSFIRFAYRQGKGFNPNQNADGEWIAHTERLLAGVLGASSTRAVVKAAIEGREMQLEDVVRIADEASEVLQFNRALLQGAIENITQGISVVDQSL”, “not soluble”; to “QDSDSTAAVAVLKRAVELDAESRYQQALVCYQEGIDMLLQVLKGTKESSKRCVLRTKISGYMDRAENIKKYLDQEKEDGK”, “soluble”. “QDSTQNLIPAPPLISVPLQPGFWTERFQGRWFVVGLAGNAVQKERQSRFTMYSTIYELQEDNSYNVTSILVRGQGCRYWIRTFVPSSRPGQFTLGNIHSYPQIQSYDVQVADTDYDQFAMVFFQKTSENKQYFKVTLYGRTKGLSDELKERFVSFAKSLGLKDNNIVFSVPTDQCIDN”: the “soluble on expression in E. coli” value is reported as “soluble”.
